Assay results: paper PMC3360035

Molecular target: Human γD-crystallin V75D (human)
Sequence (P07320 2-174 V76D): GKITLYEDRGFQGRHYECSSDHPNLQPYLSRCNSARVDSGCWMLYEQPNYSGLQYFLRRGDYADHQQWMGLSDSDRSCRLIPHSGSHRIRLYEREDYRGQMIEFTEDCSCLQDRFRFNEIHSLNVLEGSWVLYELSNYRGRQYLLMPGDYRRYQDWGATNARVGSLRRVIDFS

suppression of aggregation on dilution out of 5 M GdnHCl (from maximum A350), αB in 5-fold molar excess: 73%
B1: αB-crystallin, wild type (natural protein)
chain: MDIAIHHPWIRRPFFPFHSPSRLFDQFFGEHLLESDLFPTSTSLSPFYLRPPSFLRAPSWFDTGLSEMRLEKDRFSVNLDVKHFSPEELKVKVLGDVIEVHGKHEERQDEHGFISREFHRKYRIPADVDPLTITSSLSSDGVLTVNGPRKQVSGPERTIPITREEKPAVTAAPKK
